Test results published in CN111349168A (DONGGUAN PENGZHI BIOTECHNOLOGY CO LTD, dated 2020).

Biological target: T1, CKMB(PAJ18) (human, UniProt P06732 1-381; P12277 1-381)
T1 construct: Antigen reagent named only as CKMB(PAJ18); Its source and construct are not described; also called 杂化型肌酸激酶同工酶; CKMB抗原
Test: biolayer interferometry, antibody captured on AMC sensor, CKMB in solution

T1 sequence (P06732 whole entry, chain 1 of 2): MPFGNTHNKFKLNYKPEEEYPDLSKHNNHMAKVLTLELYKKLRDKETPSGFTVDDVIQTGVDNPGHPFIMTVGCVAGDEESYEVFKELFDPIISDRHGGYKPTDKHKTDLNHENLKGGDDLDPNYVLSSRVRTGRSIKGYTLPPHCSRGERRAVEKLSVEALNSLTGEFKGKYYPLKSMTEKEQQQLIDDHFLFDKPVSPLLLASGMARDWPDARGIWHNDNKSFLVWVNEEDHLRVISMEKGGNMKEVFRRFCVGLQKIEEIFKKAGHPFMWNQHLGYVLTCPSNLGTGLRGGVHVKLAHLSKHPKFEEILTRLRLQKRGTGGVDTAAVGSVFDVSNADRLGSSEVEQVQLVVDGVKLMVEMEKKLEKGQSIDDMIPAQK
T1 sequence (P12277 whole entry, chain 2 of 2): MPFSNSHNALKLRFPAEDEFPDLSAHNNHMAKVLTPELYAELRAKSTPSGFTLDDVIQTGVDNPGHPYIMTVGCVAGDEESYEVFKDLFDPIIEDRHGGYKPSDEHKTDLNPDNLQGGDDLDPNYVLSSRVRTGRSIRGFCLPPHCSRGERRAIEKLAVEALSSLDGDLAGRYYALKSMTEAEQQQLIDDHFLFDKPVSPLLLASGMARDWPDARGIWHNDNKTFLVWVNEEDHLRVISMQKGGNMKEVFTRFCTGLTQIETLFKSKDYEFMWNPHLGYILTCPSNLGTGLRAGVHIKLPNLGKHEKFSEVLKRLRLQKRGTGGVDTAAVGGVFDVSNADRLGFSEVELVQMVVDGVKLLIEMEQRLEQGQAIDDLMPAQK

B1: Anti-CKMB 10C5 recombinant antibody (WT) (antibody, V domains shown)
VH: DVQLQESGPGLVKPSQTMSLTCTVTGVSITTGTDRWSWIRQFPGNKLEWIGYIFYSGTLTYNPSVTSRTTITRDTSKNQFFLEMNSLTAEDTATYYCARERTYYPYGYFDVFGTGTTVTVSS
VL: DIQMNQSPSSLSASLGDTITITCHGSNNINIWLSWYQQKPGNTPKLLIYKGSDIHTGVSSRFSGSGSGTAFTLTISSLQPEDIATYYCQQAQSYAWTWGGGTKLEIK
B1 was tested, and the Kd was 77.6 nM, the koff was 0.00512 s⁻¹ and the kon was 66000 M⁻¹ s⁻¹.
